T1: Swi1 (S. cerevisiae, UniProt P09547 1-1314)
T1 sequence: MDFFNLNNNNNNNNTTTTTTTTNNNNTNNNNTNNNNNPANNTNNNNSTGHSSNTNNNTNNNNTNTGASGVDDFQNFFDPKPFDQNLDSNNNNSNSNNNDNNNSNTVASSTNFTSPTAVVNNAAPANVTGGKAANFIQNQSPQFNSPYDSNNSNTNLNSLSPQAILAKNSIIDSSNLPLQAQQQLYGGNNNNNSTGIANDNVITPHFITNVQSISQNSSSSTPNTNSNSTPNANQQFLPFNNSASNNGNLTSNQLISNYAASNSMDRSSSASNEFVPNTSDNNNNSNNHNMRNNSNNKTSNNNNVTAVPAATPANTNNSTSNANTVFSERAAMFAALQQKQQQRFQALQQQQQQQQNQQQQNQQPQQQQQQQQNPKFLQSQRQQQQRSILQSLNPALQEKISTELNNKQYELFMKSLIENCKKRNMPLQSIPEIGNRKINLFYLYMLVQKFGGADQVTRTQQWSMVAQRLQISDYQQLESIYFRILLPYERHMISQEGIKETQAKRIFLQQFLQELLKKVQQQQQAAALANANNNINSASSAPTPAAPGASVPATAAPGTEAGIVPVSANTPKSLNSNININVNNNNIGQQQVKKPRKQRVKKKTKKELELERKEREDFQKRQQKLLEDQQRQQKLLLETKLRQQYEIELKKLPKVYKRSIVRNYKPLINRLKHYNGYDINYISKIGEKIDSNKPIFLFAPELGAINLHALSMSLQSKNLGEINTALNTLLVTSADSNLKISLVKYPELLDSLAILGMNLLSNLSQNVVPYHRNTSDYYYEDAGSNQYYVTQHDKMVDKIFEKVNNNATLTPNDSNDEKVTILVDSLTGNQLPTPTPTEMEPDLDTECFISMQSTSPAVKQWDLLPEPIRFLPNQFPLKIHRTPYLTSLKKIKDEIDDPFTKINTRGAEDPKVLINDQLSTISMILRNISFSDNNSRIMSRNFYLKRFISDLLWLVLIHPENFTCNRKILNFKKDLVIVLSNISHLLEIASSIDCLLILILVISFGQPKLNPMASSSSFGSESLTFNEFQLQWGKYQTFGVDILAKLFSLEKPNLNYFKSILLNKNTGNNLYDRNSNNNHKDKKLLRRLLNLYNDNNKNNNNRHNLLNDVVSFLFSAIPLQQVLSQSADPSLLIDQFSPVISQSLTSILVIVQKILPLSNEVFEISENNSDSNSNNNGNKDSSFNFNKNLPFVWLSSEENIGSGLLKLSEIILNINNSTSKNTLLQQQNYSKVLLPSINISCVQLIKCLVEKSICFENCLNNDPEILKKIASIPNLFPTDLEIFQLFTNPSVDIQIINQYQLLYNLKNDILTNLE

T2: Snf12 (S. cerevisiae, UniProt P53628 1-566)
T2 sequence: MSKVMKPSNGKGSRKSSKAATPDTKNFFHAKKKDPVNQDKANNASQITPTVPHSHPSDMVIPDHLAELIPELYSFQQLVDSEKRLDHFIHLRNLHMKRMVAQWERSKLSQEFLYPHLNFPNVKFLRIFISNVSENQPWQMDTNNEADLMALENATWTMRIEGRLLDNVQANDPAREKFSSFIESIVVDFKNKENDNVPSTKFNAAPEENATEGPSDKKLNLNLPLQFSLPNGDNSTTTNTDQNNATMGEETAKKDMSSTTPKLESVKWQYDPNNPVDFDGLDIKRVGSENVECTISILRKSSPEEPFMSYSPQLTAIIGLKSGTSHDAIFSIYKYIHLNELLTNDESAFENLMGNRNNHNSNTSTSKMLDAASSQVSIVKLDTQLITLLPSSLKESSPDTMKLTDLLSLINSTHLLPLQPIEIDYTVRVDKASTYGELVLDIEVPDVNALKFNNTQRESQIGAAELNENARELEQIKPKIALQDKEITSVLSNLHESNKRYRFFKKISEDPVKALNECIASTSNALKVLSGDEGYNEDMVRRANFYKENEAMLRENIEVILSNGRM

B1: Swi3 (natural protein)
chain: MENTLGEGSTVNASVDVDQHGNDNNSDSNANAAVAGVANTDTAGEESQQQDESLKDEATVPNTRDAESEAITVTAKQQPTMQANKLDSQETPSTEESRAQNVFGQDNEDSDNLFGETESSVSNNEANTPSIPTNPVDNENNKPAIKEDSTIQDSNGDVKNMEDVKIQKEEEPENNTVIEGVKEESQPDENTKEMDEVEEDDEDDDQPMISPDNSIFGDTKSESKQLGNTSSVANTPSEIPDAHKAEQEDIIEKTESVDKKVDSGEERNEQEREIMNDHSKSANPKKTTITRVEPETFEIPQAHEIVIPSYSKWFNLEKIHSIEVQSLPEFFTNRIPSKTPEVYMRYRNFMVNSYRLNPNEYFSVTTARRNVSGDAAALFRLHKFLTKWGLINYQVDSKLLPKNIEPPLTSQYSTRHDAPRGLFPFESYKPSVQLPDMAKLKKMMNTSDSESTLYKYLKESKRKYDEITHPPSTTDDENGDKNDNGGKMNNEVSTSTSMTGDANLLEEGETSRPLKKVKILEQIDENWSKEDLQKLLKGIQEFGADWYKVAKNVGNKSPEQCILRFLQLPIEDKFLYGDGNGKGDNDNGLGPLKYAPHLPFSKSENPVLSTIAFLVGLVNPKTVQSMTQRAIQSAESIKSQKEEISDQKPIEHIKEGSEIAISSLGYRSHIFATNEERQMNFLTNELIRLQMEKLDAKLNHLKKLEKFMELERKTLERQQENLLIQRLNFNQNSSKIVNVLSKCLNLISDSNINNSSVAEKEEIRSQIDHFKSMLSKPETLSIGKNPFNKPNIETGENHNGQSISNENDVKPISIEAPQFYRYWSA

How the values were obtained:
Assay in all cases: cryo-EM structure
[1] = molecular target: Snf2 (S. cerevisiae, UniProt P22082 1-1703)
Chain of Snf2 (P22082 whole entry): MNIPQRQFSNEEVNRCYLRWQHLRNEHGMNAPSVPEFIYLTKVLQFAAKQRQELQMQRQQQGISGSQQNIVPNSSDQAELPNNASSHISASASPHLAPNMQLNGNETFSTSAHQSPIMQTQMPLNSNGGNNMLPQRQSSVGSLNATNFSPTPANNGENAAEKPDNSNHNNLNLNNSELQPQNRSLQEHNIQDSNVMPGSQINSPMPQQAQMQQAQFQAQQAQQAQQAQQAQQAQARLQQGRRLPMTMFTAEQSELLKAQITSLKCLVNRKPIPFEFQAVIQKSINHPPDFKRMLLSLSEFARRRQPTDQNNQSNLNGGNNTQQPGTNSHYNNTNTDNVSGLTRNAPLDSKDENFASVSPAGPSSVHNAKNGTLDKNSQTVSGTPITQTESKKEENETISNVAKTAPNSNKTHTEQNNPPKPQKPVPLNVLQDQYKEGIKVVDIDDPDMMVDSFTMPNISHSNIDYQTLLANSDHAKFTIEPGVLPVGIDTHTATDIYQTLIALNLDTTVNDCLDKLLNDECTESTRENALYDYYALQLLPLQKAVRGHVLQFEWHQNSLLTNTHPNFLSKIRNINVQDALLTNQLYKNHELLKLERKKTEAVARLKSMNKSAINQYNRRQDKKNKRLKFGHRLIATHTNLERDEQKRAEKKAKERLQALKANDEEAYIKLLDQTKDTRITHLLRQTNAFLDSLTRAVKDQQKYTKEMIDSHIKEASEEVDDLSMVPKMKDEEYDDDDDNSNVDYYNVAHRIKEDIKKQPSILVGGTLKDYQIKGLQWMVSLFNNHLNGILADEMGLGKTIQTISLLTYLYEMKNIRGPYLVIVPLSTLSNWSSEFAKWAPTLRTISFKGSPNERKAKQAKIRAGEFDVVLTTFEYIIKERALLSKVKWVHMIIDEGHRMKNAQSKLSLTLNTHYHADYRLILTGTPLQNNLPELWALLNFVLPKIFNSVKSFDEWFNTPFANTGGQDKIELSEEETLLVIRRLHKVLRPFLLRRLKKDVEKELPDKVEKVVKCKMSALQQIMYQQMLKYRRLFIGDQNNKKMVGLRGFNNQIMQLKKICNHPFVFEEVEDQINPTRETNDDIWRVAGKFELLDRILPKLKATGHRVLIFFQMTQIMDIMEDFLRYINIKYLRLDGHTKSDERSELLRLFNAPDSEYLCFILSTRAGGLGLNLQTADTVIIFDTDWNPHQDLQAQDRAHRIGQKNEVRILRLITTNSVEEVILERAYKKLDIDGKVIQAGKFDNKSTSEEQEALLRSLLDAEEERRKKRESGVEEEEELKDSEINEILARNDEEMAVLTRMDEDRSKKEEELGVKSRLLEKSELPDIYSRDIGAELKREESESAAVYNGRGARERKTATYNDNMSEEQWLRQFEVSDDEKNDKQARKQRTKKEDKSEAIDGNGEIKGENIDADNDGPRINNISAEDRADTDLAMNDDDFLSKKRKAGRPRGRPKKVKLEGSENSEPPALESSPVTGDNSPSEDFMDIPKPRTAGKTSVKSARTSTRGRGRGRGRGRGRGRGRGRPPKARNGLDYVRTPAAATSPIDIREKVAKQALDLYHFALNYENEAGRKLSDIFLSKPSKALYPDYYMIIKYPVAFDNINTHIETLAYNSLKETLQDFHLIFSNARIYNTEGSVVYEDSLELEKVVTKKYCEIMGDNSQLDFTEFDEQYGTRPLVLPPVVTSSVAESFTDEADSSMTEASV

[2] = molecular target: T1, Swi1
[3] = molecular target: Snf5 (S. cerevisiae, UniProt P18480 1-905)
[4] = molecular target: the molecule itself
[5] = molecular target: B1
[6] = molecular target: T2, Snf12

| Binder | binding result [1] | binding result [2] | binding result [3] | stoichiometry N [4] | binding result [5] | binding result [6] |
| --- | --- | --- | --- | --- | --- | --- |
| B1 | binds | binds | binds | 2 |  |  |
| Snf6 (natural protein) MGVIKKKRSHHGKASRQQYYSGVQVGGVGSMGAINNNIPSLTSFAEENNYQYGYSGSSAGMNGRSLTYAQQQLNKQRQDFERVRLRPEQLSNIIHDESDTISFRSNLLKNFISSNDAFNMLSLTTVPCDRIEKSRLFSEKTIRYLMQKQHEMKTQAAELQEKPLTPLKYTKLIAAAEDGSRSTKDMIDAVFEQDSHLRYQPDGVVVHRDDPALVGKLRGDLREAPADYWTHAYRDVLAQYHEAKERIRQKEVTAGEAQDEASLQQQQQQDLQQQQQVVTTVASQSPHATATEKEPVPAVVDDPLENMFGDYSNEPFNTNFDDEFGDLDAVFF |  | binds |  |  | binds | binds |
| Swp82 (natural protein) MLGEDEGNTVLEKGNNPSVKQGEVGAVFIVPKILIREHERVILKQILQILDQDELVQPPLDKFPYKKLELPKYIDELKTRDATNTSYKMIQLDAYGEKKVGSNGELFGGRHYLFNTFTFTAHMGVLLVLLQDVIKVLYQSNATHDEDEFIVQHDQILVMETSEEQTKFLAKNGVIPEESKGSFKYITARSAFVEFGASVIAGGQRIVDDYWESLAKKQNLSSHQRVFKLSTNLISKISLLRPSFQNNRISNANEISANTNNTCTISTSKFESQYPIVTEQPSAEIREAYIENFAKGEHISAIVPGQSISGTLELSAQFRVPRYHSKNSFQQALQMKAMDIPIGRHEELLAQYESQAPDGSASISLPNHIPSVNPSNKPIKRMLSSILDINVSSSKNKKSEENEMIKPMNKGQHKNNTSLNINGWKFESLPLKSAENSGKQQYYRGLPLYEKNTLLERLKQLTPNEIKELEHLHDAVFVNTGLQNVRKVRTKKWKKYWQYKAGIPIGLKRSQLDEFKNKYLKDVLAQTSVTTNFNEITNTDETITTKRVPNPNFLGNCNIKDFKPPYIYSHVNKVPQNVAGDKTAVKLDTEVKNTNANPVVATDPVAAKPDNLANFSNEVAMNN |  |  | binds |  | binds |  |

Source: publication doi:10.1101/805184 (bioRxiv, 2019)
